Test results from publication PMC7082061 (PLoS Pathogens, 2020).

B1: MOKV G_(1-436)WT (wild type Mokola virus glycoprotein G ectodomain) (domain or fragment)
chain: EFPLYTIPEKIEKWTPIDMIHLSCPNNLLSEEEGCNAESSFTYFELKSGYLAHQKVPGFTCTGVVNEAETYTNFVGYVTTTFKRKHFRPTVAACRDAYNWKVSGDPRYEESLHTPYPDSSWLRTVTTTKESLLIISPSIVEMDIYGRTLHSPMFPSGVCSNVYPSVPSCETNHDYTLWLPEDPSLSLVCDIFTSSNGKKAMNGSRICGFKDERGFYRSLKGACKLTLCGRPGIRLFDGTWVSFTKPDVHVWCTPNQLINIHNDRLDEIEHLIVEDIIKKREECLDTLETILMSQSVSFRRLSHFRKLVPGYGKAYTILNGSLMETNVYYKRVDKWADILPSKGCLKVGQQCMEPVKGVLFNGIIKGPDGQILIPEMQSEQLKQHMDLLKAAVFPLRHPLISREAVFKKDGDADDFVDLHMPDVHKSVSDVDLGLPH

How the values were obtained:
[1] = biological target: VSV Gth (aa residues 1-422, VSV G fragment that was previously crystallized) (vesicular stomatitis virus); experiment: negative staining electron microscopy
[2] = biological target: the molecule itself; experiment: negative staining electron microscopy

Molecule	stoichiometry N [1]	stoichiometry N [2]
VSV Gth (aa residues 1-422, VSV G fragment that was previously crystallized) (domain or fragment)	3	–
B1	–	3
